# “Also recorded” adds a separate entry of the source.
# Key:
# pepsin = biological target: T1, pepsin (Sus scrofa, UniProt P00791); experiment: Resistance of E40 to pepsin (suc-Ala-Ala-Pro-Phe-pNA cleavage); format: biochemical; conditions: pH 4, 4.5 and 5; protease 1:2 (w/w) versus E40; 110 minutes, 37° C.
# T1 construct: purchased Sigma-Aldrich (Milan, Italy)
# Experimental: The resistance of recombinant E40, obtained by the method of the invention, to the proteolytic activity of gastric (pepsin) and duodenal (trypsin) digestive proteases was further evaluated (FIG. 4), using suc-Ala-Ala-Pro-Phe-pNA as substrate. Aqueous solutions of E40 enzyme, alone or in combination with pepsin and/or trypsin (0.2 mg/ml E40, 0.1 mg/ml Pepsin or Trypsin), were diluted in citrate-phosphate buffer containing suc-Ala-Ala-Pro-Phe-pNA at pH 4, 4.5 and 5 for pepsin, and at pH 6 and 7 for trypsin. Final concentrations in reaction mix were: 200 μM substrate, 1-4 nM E40 for incubations at pH 4 to 5, or 4 nM and 7 nM for incubations at pH 6 or 7, respectively (E40 concentration was adjusted according to optimum pH). The digestive protease was maintained in the ratio 1:2 (w/w) versus E40.
# Reactions (200 μl volume in 96-wells flat bottom ptiter plates) were protracted for 110 minutes at 37° C. Absorbance was monitored every 10 min for determining the enzymatic activity. Pepsin and trypsin without E40 were processed in the same way and tested in the same condition as reference control. Each analysis was carried out in duplicate.
# [1] = system: CD4+ T-cell lines from intestinal biopsies of CD patients; experiment: IFN-γ production of gliadin reactive intestinal T-cell lines exposed to gliadin digests; format: cell-based, human; conditions: samples A-H; digests at 50 and 100 μg/ml; 48 hours; assay sensitivity 32 pg/ml
# Experimental: In order to evaluate the capability of gliadin preparations to activate a T-cell response, the different gliadin enzymatic digests (samples A-L in FIGS. 7A and 7B) deamidated by tTG treatment, were assayed on CD4+ T-cell lines previously established from intestinal biopsies of CD patients^11 (Table 3).
# Briefly, intestinal mononuclear cells were stimulated with irradiated autologous peripheral blood mononuclear cells (PBMCs) and deamidated pepsin-chymotrypsin digested gliadin extracted from the hexaploid wheat. Growing T cells were kept in culture by repeated stimulation with heterologous irradiated PBMCs and PHA, and IL-2 as a growth factor. […] In the functional assays, the immune response of TCLs to gliadin enzymatic digests (samples A-L, Table 1 and FIGS. 7A and B) was assayed by detecting IFN-γ production. T cells (3×10^4) were co-incubated with irradiated autologous EBV-transformed, B-lymphoblastoid cell lines (B-LCLs, 1×10^5), in 200 μL of complete medium (X-Vivol5 supplemented with 5% human serum and penicillin-streptomycin antibiotics, all reagents supplied by Lonza-BioWhittaker, Verviers, Belgium) in U-bottom 96-well plates. After a 48 hours incubation, cell supernatants (50 μL) were collected for IFN-γ determination. […] IFN-γ was measured by a classic sandwich ELISA using purified and biotin-conjugated anti-IFN-γ Abs purchased from Mabtech (Nacka Strand, Sweden). […]
# peanut proteins = experiment: In vitro digestion of peanut proteins (SDS-PAGE, HPLC); format: biochemical; conditions: 1:20 enzyme:substrate, up to 120 min
# Experimental: Degradation of peanuts proteins incubated in the presence of recombinant E40 has been assessed by SDS-PAGE and HPLC analysis. Results are shown in FIG. 9 (A: SDS-PAGE; B: HPLC analysis).
# [2] = Activity of culture supernatant toward sucAAPF-AMC at various pH; format: biochemical; conditions: recombinant E40 culture supernatant
# Experimental: FIG. 1. Activity of Actinoallomurus A8 culture supernatant fraction containing the native E40. A: relative activity toward the substrate sucAlaAlaProPhe-AMC (sucAAPF-AMC) at various pH values (the optimum —100% activity— is at pH 5). B: Gliadin digestion after 2 hours of incubation at 37° C., pH 3. Gel stained with Coomassie R250 brilliant blue; Lane 1: gliadin alone, lane 2: gliadin+E40-containing supernatant fraction.
# FIG. 3. Recombinant E40 (SEQ ID NO: 2) obtained by S. lividans TK24/p1J86/e40 submerged fermentation, at flask scale (panels A-C) or in a 15 L bioreactor, followed by purification (panels D-E). A: activity toward the substrate sucAAPF-AMC at pH 5 of supernatant samples taken at different fermentation times (♦72, ▴96, ●168, ▪192 fermentation hours) from the producing S. lividans TK24/p1J86/E40 (E40, continuous line) and absence of activity of supernatant samples taken from the pIJ86-empty control strain (ctr, dashed lines). Activity is shown as relative fluorescent units (rfu, Y axis) produced in time (X axis). […] D: profile of an enzyme preparation comprising recombinant E40 purified from the 15 L fermentation; lane 1: final enzyme preparation comprising recombinant E40 stained with Coomassie (the arrow indicates recombinant E40), lane 2: zymography as in C, lane 3: band of gelatin hydrolysis after 2 hours of digestion at 37° C. and pH 5, visualized after Coomassie staining of the gelatin substrate. E: relative activity (%) of recombinant E40 in the purified enzyme preparation at different pH values (from 2 to 8), evaluated with the substrate suc-Ala-Ala-Pro-Phe-pNA.
# As well as native E40, recombinant E40 was active in the pH range 3-6, with an optimum at pH 5 (FIG. 3, panel B).
# [3] = system: gliadin (QPQLPY sequence); experiment: Gluten content of gliadin digests by Elisa-G12; format: biochemical, wheat
# Experimental: Next it has been evaluated whether recombinant E40 enzymatic activity efficiently neutralizes: i) the capacity of gluten proteins to bind G12 antibodies, and ii) the stimulation of a T-cell-mediated immune response, measured by IFN-γ release. To this purpose, gliadin proteins were suspended in 1 ml of 0.1M ammonium acetate and digested with E40 alone, or with E40 co-incubated with the gastrointestinal proteases, pepsin and trypsin/chymotrypsin, at different pHs and time points, as detailed in Table 1.
# All enzymes were added in w/w ratio 1:20 (enzyme:protein) and incubated at 37° C., at indicated pH and incubation time. E40/pepsin/chymotrypsin-digested gliadins were deamidated by tTGase (Sigma Aldrich), as previously described^4. Briefly, the enzymatic gliadin digests (500 μg/ml) were incubated with 2 U of guinea pig tTG (T-5398, Sigma, St. Louis, Mo., USA) at 37° C. for 2 hours in PBS with 1 mmol/L CaCl2.
# To estimate the effect of E40 digestion on the immunological potential of wheat, gluten content of samples A-L was determined by monoclonal antibodies specific for QPQLPY sequence (Elisa-G12)^10.
# T1 sequence (P00791 60-385): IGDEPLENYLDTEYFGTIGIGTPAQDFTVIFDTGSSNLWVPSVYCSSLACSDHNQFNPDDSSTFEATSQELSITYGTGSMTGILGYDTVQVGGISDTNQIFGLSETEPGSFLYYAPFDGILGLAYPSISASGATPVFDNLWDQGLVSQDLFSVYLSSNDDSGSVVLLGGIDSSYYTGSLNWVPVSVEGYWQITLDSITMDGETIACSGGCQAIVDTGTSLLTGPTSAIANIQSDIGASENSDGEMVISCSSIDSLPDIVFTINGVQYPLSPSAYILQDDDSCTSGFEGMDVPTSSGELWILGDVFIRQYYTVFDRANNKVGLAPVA
molecule,measurement,setting,value
"E40: Actinoallomurus endopeptidase with glutenase activity, sequence comprising SEQ ID NO: 1; recombinant histidine-tagged form SEQ ID NO: 2 from S. lividans (protein, Actinoallomurus) AAPSGLSPANLQSAYKLPSSTAGSGQTVAIVDAYDAPTAEADLNVYRSQFGLGACTTANGCFKKVDQNGGTSYPRKDGGWAQEISLDLDMVSAVCPNCKIVLVEAKTNSFANLGTAENTAASLANVISNSYGGSDASDASYGSYYNHPGKAITVSSGDAGYGVEYPASSHYVTAVGGTSLRTASTSRGWSETAWSGAGSGCSAYNTALSGQSGLTGCSRRAVADVSAVADPATGVAVYDSTAYQGQSGWMVFGGTSVAAPIIGGVYGLAANAASIDNNYPYAHTSSLFDVTSGSNGTCTTTKWCTAGTGWDGPTGLGTPNGTGAFGHHHHHH",E40 cleaving activity in presence of pepsin,pepsin,unaffected; also recorded: slightly enhanced
same,IFN-γ production of T cells exposed to E40-digested gliadins,[1],no detectable IFN-γ production
same,peanut protein digestion,peanut proteins,degradation of peanut proteins
same,pH range of activity,[2],3-6
same,pH optimum of relative activity,"[2]; 168 hours of fermentation, sucAAPF-AMC",5
same,pH of maximal activity,"purified enzyme preparation, pH range 2 to 8",5
same,residual activity at pH 3,"purified enzyme preparation, relative to pH 5",~40%
same,enzyme activity of purified sample,"purified sample of Example 4, pH 5, 37° C.",41000 U/mg protein
same,gluten content (Elisa-G12),[3]; sample A: E40 (1 h) (pH 4),1.72 ppm (ng/mL)
same,gluten content (Elisa-G12),[3]; sample B: E40 (2 h) (pH 4),2.26 ppm (ng/mL)
same,gluten content (Elisa-G12),[3]; sample C: E40 + Pepsin (1 h) (pH 4),5.23 ppm (ng/mL)
same,gluten content (Elisa-G12),[3]; sample D: E40 + Pepsin (2 h) (pH 4),5.42 ppm (ng/mL)
same,gluten content (Elisa-G12),"[3]; sample E: E40 + Pepsin (2 h) (pH 4), Trypsin + Chymotrypsin (2 h) (pH 6)",4.09 ppm (ng/mL)
same,gluten content (Elisa-G12),"[3]; sample F: E40 + Pepsin (2 h) (pH 4), Trypsin + Chymotrypsin (4 h) (pH 6)",2.68 ppm (ng/mL)
same,gluten content (Elisa-G12),"[3]; sample G: E40 + Pepsin (1 h) (pH 4), Trypsin + Chymotrypsin (2 h) (pH 6)",1.68 ppm (ng/mL)
same,gluten content (Elisa-G12),"[3]; sample H: E40 + Pepsin (1 h) (pH 4), Trypsin + Chymotrypsin (4 h) (pH 6)",2.05 ppm (ng/mL)
same,gluten content of E40 digested samples,[3]; samples from A to H,below 20 ppm

# — patent US20220364069A1, “METHOD FOR THE PRODUCTION OF AN ENZYMATIC COMPOSITION COMPRISING A RECOMBINANT ENDOPEPTIDASE” (NEMYSIS LIMITED, priority 2019, published 2022)
